Source: patent US20070111265A1, “Ligands for mineralocorticoid receptor (MR) and methods for screening for or designing MR ligands” (Van Andel Research Institute, priority 2005, published 2007)
“Also recorded” adds a separate entry of the source. One block for each molecule: values may come before it. No end group written: not given here.

Legend:
[1] = test system: MR S810 mutated to leucine or methionine; conditions: Geller et al., 2000; cited from earlier work
[2] = biological target: T1, purified MR LBD/corticosterone complex (Homo sapiens, UniProt P08235, C808S); assay: AlphaScreen binding of biotinylated coactivator/corepressor peptides (FIG. 1B); conditions: corticosterone-bound MR LBD
T1 construct: made in house; host or cells: E. coli BL21DE3 (pET24a)
T1 sequence (P08235 727-984 C808S): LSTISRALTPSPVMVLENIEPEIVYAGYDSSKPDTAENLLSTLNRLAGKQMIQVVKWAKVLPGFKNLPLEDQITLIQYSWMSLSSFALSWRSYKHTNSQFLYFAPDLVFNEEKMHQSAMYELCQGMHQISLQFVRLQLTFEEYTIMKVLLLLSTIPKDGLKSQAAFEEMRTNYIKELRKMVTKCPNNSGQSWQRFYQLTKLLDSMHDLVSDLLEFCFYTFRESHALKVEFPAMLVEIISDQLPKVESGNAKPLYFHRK
Protocol: (B) Binding of various peptides containing coactivator or corepressor motifs to the purified MR LBD/corticosterone complex as measured by AlphaScreen assays. The background reading with the MR LBD alone is less than 200.
(§1) The binding of various peptide motifs to MR was determined by AlphaScreen assays using a hexahistidine detection kit from Perkin-Elmer. MR proteins were prepared as 6×His-GST fusion proteins for the assays.
The biotinylated peptides that were used in FIG. 1B are listed below in Table 1: […]

[3] = biological target: T2, MR (Homo sapiens, UniProt P08235); assay: IC50 (µM)
T2 construct: receptor expression vector (pRS vector) encoding full-length GR and MR respectively (ATCC); host or cells: Cos-7
T2 sequence (P08235 whole entry, looked up): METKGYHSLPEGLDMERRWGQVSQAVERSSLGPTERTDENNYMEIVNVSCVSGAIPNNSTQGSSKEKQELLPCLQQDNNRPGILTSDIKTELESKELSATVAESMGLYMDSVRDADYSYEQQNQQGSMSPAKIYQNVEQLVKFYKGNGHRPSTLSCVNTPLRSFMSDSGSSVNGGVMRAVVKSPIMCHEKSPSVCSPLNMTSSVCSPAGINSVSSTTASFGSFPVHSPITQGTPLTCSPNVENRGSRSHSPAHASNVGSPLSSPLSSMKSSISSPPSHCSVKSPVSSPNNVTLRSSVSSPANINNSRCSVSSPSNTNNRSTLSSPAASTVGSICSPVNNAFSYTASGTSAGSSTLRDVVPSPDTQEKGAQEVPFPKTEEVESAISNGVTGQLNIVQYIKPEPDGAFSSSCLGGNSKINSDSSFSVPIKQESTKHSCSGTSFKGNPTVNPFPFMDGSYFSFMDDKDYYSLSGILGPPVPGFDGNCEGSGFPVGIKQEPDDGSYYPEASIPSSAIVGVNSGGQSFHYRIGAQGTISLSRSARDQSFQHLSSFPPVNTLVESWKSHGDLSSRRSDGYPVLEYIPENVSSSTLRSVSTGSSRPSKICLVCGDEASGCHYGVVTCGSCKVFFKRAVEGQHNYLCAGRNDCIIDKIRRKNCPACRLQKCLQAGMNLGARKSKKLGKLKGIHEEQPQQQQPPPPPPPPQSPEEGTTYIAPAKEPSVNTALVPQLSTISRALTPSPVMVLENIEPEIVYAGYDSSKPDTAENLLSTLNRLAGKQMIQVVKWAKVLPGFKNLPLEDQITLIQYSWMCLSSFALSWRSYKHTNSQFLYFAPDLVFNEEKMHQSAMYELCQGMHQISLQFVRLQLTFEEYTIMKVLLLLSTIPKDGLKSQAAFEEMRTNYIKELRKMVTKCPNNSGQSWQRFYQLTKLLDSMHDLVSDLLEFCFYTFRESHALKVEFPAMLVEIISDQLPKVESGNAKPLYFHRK
Excerpt: Table printed on a drawing sheet, FIG. 3D
Head of the field: IC50 (µM)
The patent's description of the figure: FIG. 3.
First copying reader's note: The head of the sequence column numbers the residue positions relative to the first leucine of the LXXLL motif; the last two rows are protein fragments given as residue ranges.

[4] = biological target: T3, MR LBD (Homo sapiens, UniProt P08235, C808S); assay: Peptide profiling: unlabeled peptides compete off SRC2-3 binding to MR (FIG. 1C); conditions: unlabeled peptide 500 nM; 20 nM corticosterone or aldosterone
T3 construct: made in house; host or cells: E. coli BL21DE3 (pET24a)
T3 sequence (P08235 727-984 C808S): T1 sequence (P08235 727-984 C808S)
Protocol: The cofactors that contain a pair of LXXLL motifs with strong binding affinity to MR are boxed. All peptides have identical length of 15 residues except for SRC1-4 motif, which terminates at position +7 relative to the first leucines (L+1) in the LXXLL motif, and for the AR peptides and the corepressor motifs, which are longer than the coactivator motifs. Sequences of peptides are listed in experimental procedures.
as §1
The unlabeled peptides that were used in FIG. 1C are listed below in Table 2:
MR is the least studied member among the classical steroid hormone receptors and its physiological coactivators have not been clearly documented. To gain insights into which coactivator is physiologically relevant to MR, the inventors performed peptide profiling experiments using a panel of 38 unlabeled peptides to compete off the binding of the third LXXLL motif of SRC2 (also known as TIF2/GRIP1) to MR. […] The strong binding of the SRC1-4 motif and the PGC1 motifs is consistent with previous studies of the binding of LXXLL motifs to oxosteroid receptors (Hultman et al., 2005; Wu et al., 2004).

Molecule: C[C@]12CCC(=O)C=C1CC[C@@H]1[C@@H]2C(=O)C[C@@]2(C)[C@H]1CC[C@]2(O)C(=O)CO [cortisone]
activation of S810-mutated MR [1]: activated efficiently

Molecule: CC(=O)[C@H]1CC[C@H]2[C@@H]3CCC4=CC(=O)CC[C@]4(C)[C@H]3CC[C@]12C [progesterone]
activation of S810-mutated MR [1]: activated efficiently; also recorded: allows the receptor to respond

Molecule: PRQGSILYSLLTSSK (listed as Homo sapiens) [DAX1-3, 18]
inhibition of SRC2-3 binding to MR [4]: most potent competitors

Molecule: SGNLVPDAASKHKQLSELLRGGSG (listed as Homo sapiens) [CBP]
interaction with purified MR LBD [2]: weakly

Next, values leading:

interaction with purified MR LBD [2]: strongly
Molecule: AEEPSLLKKLLLAPA [PGC1]

interaction with purified MR LBD [2]: weakly
Molecule: GHGEDFSKVSQNPILTSLLQITGN (listed as Homo sapiens) [TRAP220]

interaction with purified MR LBD [2]: failed to interact
Molecule: GHSFADPASNLGLEDIIRKALMGSF [NCOR-2]

IC50 [3]: 1.4 µM
Molecule: KENNALLRYLLDRDD [SRC3-3]

IC50 [3]: 4.6 µM
Molecule: QEKHRILHKLLQNGN [SRC3-2]

inhibition of SRC2-3 binding to MR [4]: most potent competitors
Molecule: WAEFSILRELLAQDV (listed as Homo sapiens) [PGC1β-2, 35]
